Source: patent US20120201751A1

Key:
[1] = target: Recombinant human CD44/Fc (R&D Systems, Minneapolis) (human) (UniProt P16070); experiment: SPR (Biacore T100), rhCD44/Fc amine-coupled to CM5, antibody injected 0.67-667 nM, 1:1 model
[2] = target: Recombinant human CD44/Fc (R&D Systems, Minneapolis) (human) (UniProt P16070); experiment: SPR (Biacore T100), recombinant human CD44/Fc amine-coupled to a CM5 chip, 1:1 interaction model; column head Kd (1/s)
[3] = target: Recombinant human CD44/Fc (R&D Systems, Minneapolis) (human) (UniProt P16070); experiment: SPR (Biacore T100), recombinant human CD44/Fc amine-coupled to a CM5 chip, 1:1 interaction model; column head Ka (1/Ms)

Kd [1]: 6.32 nM
koff [2]: 0.000225 s⁻¹
kon [3]: 35400 M⁻¹ s⁻¹
B1: (hu)ARH460-16-2 variant HV1/KV1 (antibody, V domains shown)
VH: EVQLVESGGGLVQPGGSLRLSCAASGFDFSRYWMSWVRQAPGKGLVWVGEVNPDSTSINYTPSLKDRFTISRDNAKNTLYLQMNSLRAEDTAVYYCTRPNYYGSRYHYYAMDYWGQGTLVTVSS
VL: DIQMTQSPSSLSASVGDRVTITCRASQDINNYLNWYQQKPGKAPKLLIYYTSRLHSGVPSRFSGSGSGTDFTFTISSLQPEDIATYYCQQGSTLPFTFGQGTKLEIK
